Measurements published in the supplement of paper PMC9170038.

Tested on: MS2 coat protein
Assay: apparent KD of MS2 coat protein; designed switch direction (-1 OFF switch, 1 ON switch): 1; higher = weaker reporter binding
Conditions: Eterna round: R98
Procedure: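 RNA-MaP: designed FMN/MS2 RNA switches (84 nt design region) are transcribed on-chip within common flanks and titrated with SNAP-549-labelled MS2 coat protein (about 1-3000 nM) in 100 mM Tris pH 7.5, 80 mM KCl, 4 mM MgCl2, without or with 200 uM FMN. Median apparent KD per design; activation ratio = KD,OFF / KD,ON.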

Sequence	apparent KD of MS2 coat protein (input ligand: FMN 200 uM) [µM]	apparent KD of MS2 coat protein (input ligand: none) [µM]
AAAUAAAAUAUAGGAUAUGGAAACAUGAGGAUCACCCAUGUAAAAUAAAAUAAAUAAUAAUAUAACCAGAAGGAUAAAAUAAAA [LRO001_SS NG 2]	0.0402	0.0306
CACGUCCUCACAGGAUAUGCUGGACUUUGUCCAGCAGAAGGGUGACAUGAGGAUCACCCAUGUUAAAGGACGUGUAUAUUUAAU [Denovo 24]	0.126	0.652
UCAACAAGGUGAGGAUAUGCACAGGAUCACCGUGUAGAAGGCAUCAGGUAGAAGGUGCAGAGGAUCACCCUGUAAGGAUAUACA [pwkr2 ssNG1 DX.9]	0.526	1.32
ACCAAUGGGUGAGGAUAUGCACAGGAUCACCGUGUAGAAGGCAUCAGGUAGAAGGUGCAGAGGAUCACCCUGUAAGGAUAUAUC [pwkr2 ssNG1 DX.14]	0.885	0.563
AAUAGUGGCGUAGGAUAUCUGCGUACAUGAGGAUCACCCAUGUCUCCCAGCUGCUGAGCUGGGACAGAGAAGGGCGACCGCAUA [Digece]	0.0764	0.226
AGUUACAAACUCAACAUGAGGAUCACCCAUGUACUCUCAUGUAAGGAUAUACAUUCGUAUAGAAAGUAGAAGGUACUAAUUAUG [JR_SSNG3_Sub90]	0.485	0.659
GGAGACCACACAGGAUAUGCUGGACUUUGUCCAGCAGAAGGGUGUUUAACAUGAGGAUCACCCAUGUAGGUCUCCAAAUUUAAU [Denovo 59]	0.0177	0.0605
AUGGGUUAAGGAGGAUAUAGAGGGAGGAGUAAACAUGAGGAUCACCCAUGUAUUUAAUUAGUUUACUAGAAGGCUUGUGAUUGU [1.8082e+07]	0.0527	0.0339
CGGAAUUGUACAGGAUAUGAGGGUGCCUGAGCCUCAGAAGGGUAGACCGACAUGAGGAUCACCCAUGUAUGCGGAUAACGUCCG [Sobela]	1.66	0.224
GGCGACGGUGUAGGAUAUGUGGGUUUCAAAGGGAUAGAAGGAUAGUUGGGAAUUAGGACAAGCAAACAUGAGGAUCACCCAUGU [Same STate NG 1]	0.0348	0.044
GCGCGCGGUUGAGGAUAUUUGCGUGCGGAUCGCCCGCGCACAUGAGGAUCACCCAUGUACGAGUAGGAGAAGGUGGCCCGUGUG [Same StateNG2]	0.178	0.236
UGGAUCAAUACAGGAUAUGGUGACGCACAUGAGGAUCACCCAUGUCCGCAGCGUGCUAAGCACGCCCAGAAGGGUAUUGACUUG [Enxe]	0.106	0.858
UCACUCACGUUAGGAUAUGGAUCGGAAAACGAUCCAGAAGGAACCUGCAAACCUGAGGAUCACCCGGGUUCCAAUAACGAGUGA [SameSame 9 - Jieux - Same State NG 1]	0.458	0.778
AGGUAGGUCACAGGAUAUCCCGUGAGCUACAUGAGGAUCACCCAUGUAUCACGACGAAAGAAGAAGGAGAAGGGUGACCCUGAU [Atqula]	0.0283	0.186
CAGGCUGCCAGAGGAUAAUGGACAUGAGGAUCACCCAUGUGUCAGGAUAUGGGUUUCACAUGGACUCAGAAGGGACCAGCUCGA [Raraator]	0.0338	0.131
CACUCCCGGUGAGGAUAUGCACAGGAUCACCGUGUAGAAGGCAUCAGGUAGAAGGUGCAGAGGAUCACCCUGUAAGGAUAUAUC [pwkr2 ssNG1 DX.12]	0.0945	0.3
GCUUGCGACGCAGGAUAUGGGUGCCUAAACACGAGGAUCACCCGUGUAAAGGAAGCGAAAAGCUCUCAGAAGGGCGUCGCAGGC [United States 7 - Jieux - Same State NG 2]	0.0172	0.0192
GGCUAACGGGCUAACAUGAGGAUCACCCAUGUGGACUCAUGGUAGGAUAUGCUGUACUUUGUACAGCAGAAGGGCCGGUGAGCC [Mat - Same State NG 3 - JL Mod - D9]	0.283	0.726
